1 molecule from patent publication US20220298229A1 (ICHOR BIOLOGICS, published 2022) can be followed below.

Assay [1] addresses T1, ANDV glycoprotein (GPC), glycoproteins Gn and Gc of hantavirus strain Chile-9717869 (Andes Virus (hantavirus strain …, UniProt Q9E006 19-1138)).
T1 sequence: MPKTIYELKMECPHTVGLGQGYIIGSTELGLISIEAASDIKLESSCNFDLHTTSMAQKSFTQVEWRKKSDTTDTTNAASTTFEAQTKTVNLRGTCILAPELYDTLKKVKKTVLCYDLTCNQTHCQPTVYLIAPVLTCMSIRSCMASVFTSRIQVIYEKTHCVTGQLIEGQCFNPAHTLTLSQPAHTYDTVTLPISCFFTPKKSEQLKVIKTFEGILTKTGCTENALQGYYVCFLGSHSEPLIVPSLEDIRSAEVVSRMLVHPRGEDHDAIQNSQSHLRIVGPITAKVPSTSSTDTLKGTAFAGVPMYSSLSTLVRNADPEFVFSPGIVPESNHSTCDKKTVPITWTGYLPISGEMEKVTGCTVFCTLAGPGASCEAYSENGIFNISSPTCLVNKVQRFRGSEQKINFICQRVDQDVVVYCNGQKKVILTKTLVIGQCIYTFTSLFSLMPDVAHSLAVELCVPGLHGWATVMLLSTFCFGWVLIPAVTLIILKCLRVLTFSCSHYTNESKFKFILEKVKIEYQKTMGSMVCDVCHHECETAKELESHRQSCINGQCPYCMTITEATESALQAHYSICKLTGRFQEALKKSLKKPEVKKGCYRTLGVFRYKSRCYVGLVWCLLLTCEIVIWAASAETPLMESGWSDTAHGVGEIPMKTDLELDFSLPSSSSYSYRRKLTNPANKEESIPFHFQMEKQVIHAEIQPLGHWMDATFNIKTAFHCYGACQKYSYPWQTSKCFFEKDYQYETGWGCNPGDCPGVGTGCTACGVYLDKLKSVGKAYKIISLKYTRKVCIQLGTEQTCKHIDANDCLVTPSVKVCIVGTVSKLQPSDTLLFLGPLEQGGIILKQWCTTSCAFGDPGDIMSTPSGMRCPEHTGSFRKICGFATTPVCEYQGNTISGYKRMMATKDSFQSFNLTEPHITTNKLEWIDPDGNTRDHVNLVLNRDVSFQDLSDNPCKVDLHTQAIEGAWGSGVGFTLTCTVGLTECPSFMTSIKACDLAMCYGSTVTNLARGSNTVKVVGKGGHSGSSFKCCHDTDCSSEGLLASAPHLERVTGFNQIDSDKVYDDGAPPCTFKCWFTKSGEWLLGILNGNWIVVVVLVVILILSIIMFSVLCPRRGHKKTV

Assay [2] has as its target T1, ANDV glycoprotein (GPC), glycoproteins …. Kind of assay: cell-based or functional assay.

B1: monoclonal antibody MIB22 (antibody, V domains shown)
VH: EVQLVQSGAELKKPGSSVKVSCKASGGTFVGYGVSWVRQVPGHGPEWMGGFSPISNTANYAERFQGRVTMIVDGSTSTAYMELRSLRSEDTAIYYCARSCDFWNAYYNNWFDPWGQGTLVTVSS
VL: AQSALTQPASVSGSPGQSITISCTGTSSDFADYNSVSWYQQHPGKAPKLLIFDVNDRPSGVSHRFSGSKSGNTASLTISGLQAEDESDYYCTSYTICNSYVFGTGTKVTVLG
notes: also called MIB22 IgG; first antibody
B1 yielded an EC50 in assay [1] of 3.38 µg/mL. Further, in assay [2], the “neutralization capacity relative to JL16” value turned out to be 31 fold and the “potency of ANDV neutralization relative to polyclonal IgG from P10” value came out at 67 fold.

In general, EC50 refers to the concentration that produces a half-maximal response. The low end stands for an effect from little substance, the high end for a need for much substance.
